B1: INTS4 (parent)
chain: YSSGEFSSGRKWGDDAPKEEVDTG
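Note: lentivirally expressed fusions sorted by FACS into six bins by GFP to DsRed ratio, PSI derived from sequencing read proportions per bin multiplied by bin number.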

Variants of: B1
Assay: protein stability index of a GFP-peptide fusion (GPS, HEK-293T) (PSI 1-6); higher = more stable
Conditions: c terminus: a fixed tail appended
With YSSGGFSSGRKWGDDAPKEEVDTG the protein stability index was 2.78. YSSGHFSSGRKWGDDAPKEEVDTG gave a protein stability index of 2.16. Work on YSSGIFSSGRKWGDDAPKEEVDTG yielded a protein stability index of 1.97. For YSSGKFSSGRKWGDDAPKEEVDTG, the protein stability index was 2.22. For YSSGLFSSGRKWGDDAPKEEVDTG, the protein stability index was 2.11. Work on YSSGMFSSGRKWGDDAPKEEVDTG yielded a protein stability index of 2.68. YSSGNFSSGRKWGDDAPKEEVDTG gave a protein stability index of 3.27. With YSSGPFSSGRKWGDDAPKEEVDTG the protein stability index was 2.95. Work on YSSGQFSSGRKWGDDAPKEEVDTG yielded a protein stability index of 2.14. In the case of YSSGRFSSGRKWGDDAPKEEVDTG, the protein stability index is reported as 2.15. With YSSGSFSSGRKWGDDAPKEEVDTG the protein stability index was 3.07. Work on YSSGTFSSGRKWGDDAPKEEVDTG yielded a protein stability index of 3.55. YSSGVFSSGRKWGDDAPKEEVDTG gave a protein stability index of 1.32. With YSSGYFSSGRKWGDDAPKEEVDTG the protein stability index was 1.04. Work on YSSGEASSGRKWGDDAPKEEVDTG yielded a protein stability index of 4.88. Variant YSSGECSSGRKWGDDAPKEEVDTG has a protein stability index of 5.11. YSSGEDSSGRKWGDDAPKEEVDTG showed a protein stability index of 5.75. For YSSGEGSSGRKWGDDAPKEEVDTG, the protein stability index was 4.57. YSSGEHSSGRKWGDDAPKEEVDTG gave a protein stability index of 4.96. For YSSGEISSGRKWGDDAPKEEVDTG, the protein stability index was 4.67. Work on YSSGEKSSGRKWGDDAPKEEVDTG yielded a protein stability index of 4.65. Variant YSSGELSSGRKWGDDAPKEEVDTG has a protein stability index of 4.24. YSSGEMSSGRKWGDDAPKEEVDTG gave a protein stability index of 4.69. In the case of YSSGENSSGRKWGDDAPKEEVDTG, the protein stability index is reported as 5.22. YSSGEPSSGRKWGDDAPKEEVDTG showed a protein stability index of 5.56. In the case of YSSGEQSSGRKWGDDAPKEEVDTG, the protein stability index is reported as 4.96. YSSGERSSGRKWGDDAPKEEVDTG showed a protein stability index of 4.63. For YSSGESSSGRKWGDDAPKEEVDTG, the protein stability index was 5.16. YSSGETSSGRKWGDDAPKEEVDTG showed a protein stability index of 4.79. Variant YSSGEVSSGRKWGDDAPKEEVDTG has a protein stability index of 4.99. YSSGEYSSGRKWGDDAPKEEVDTG gave a protein stability index of 4.13. With YSSGEFASGRKWGDDAPKEEVDTG the protein stability index was 1.91. Variant YSSGEFCSGRKWGDDAPKEEVDTG has a protein stability index of 2.32. For YSSGEFDSGRKWGDDAPKEEVDTG, the protein stability index was 3.83. With YSSGEFESGRKWGDDAPKEEVDTG the protein stability index was 4.21. YSSGEFFSGRKWGDDAPKEEVDTG gave a protein stability index of 2.98. YSSGEFGSGRKWGDDAPKEEVDTG showed a protein stability index of 2.75. YSSGEFHSGRKWGDDAPKEEVDTG gave a protein stability index of 1.92. In the case of YSSGEFISGRKWGDDAPKEEVDTG, the protein stability index is reported as 1.96. YSSGEFKSGRKWGDDAPKEEVDTG gave a protein stability index of 3.45. In the case of YSSGEFLSGRKWGDDAPKEEVDTG, the protein stability index is reported as 2.43. YSSGEFMSGRKWGDDAPKEEVDTG gave a protein stability index of 2.17. Work on YSSGEFNSGRKWGDDAPKEEVDTG yielded a protein stability index of 3.3. YSSGEFPSGRKWGDDAPKEEVDTG showed a protein stability index of 1.67. YSSGEFQSGRKWGDDAPKEEVDTG showed a protein stability index of 2.69. With YSSGEFRSGRKWGDDAPKEEVDTG the protein stability index was 1.8. In the case of YSSGEFTSGRKWGDDAPKEEVDTG, the protein stability index is reported as 3.02. YSSGEFVSGRKWGDDAPKEEVDTG gave a protein stability index of 2.27. In the case of YSSGEFYSGRKWGDDAPKEEVDTG, the protein stability index is reported as 2.52. For YSSGEFSAGRKWGDDAPKEEVDTG, the protein stability index was 2.75. For YSSGEFSCGRKWGDDAPKEEVDTG, the protein stability index was 1.97. With YSSGEFSDGRKWGDDAPKEEVDTG the protein stability index was 3.79. In the case of YSSGEFSEGRKWGDDAPKEEVDTG, the protein stability index is reported as 3.56. YSSGEFSFGRKWGDDAPKEEVDTG showed a protein stability index of 2.48. Work on YSSGEFSGGRKWGDDAPKEEVDTG yielded a protein stability index of 3.83. Variant YSSGEFSHGRKWGDDAPKEEVDTG has a protein stability index of 2.25. Work on YSSGEFSIGRKWGDDAPKEEVDTG yielded a protein stability index of 1.94. Work on YSSGEFSKGRKWGDDAPKEEVDTG yielded a protein stability index of 2.19. With YSSGEFSLGRKWGDDAPKEEVDTG the protein stability index was 3.21. In the case of YSSGEFSMGRKWGDDAPKEEVDTG, the protein stability index is reported as 1.6. In the case of YSSGEFSNGRKWGDDAPKEEVDTG, the protein stability index is reported as 2.68. In the case of YSSGEFSPGRKWGDDAPKEEVDTG, the protein stability index is reported as 3.25. With YSSGEFSQGRKWGDDAPKEEVDTG the protein stability index was 1.89. For YSSGEFSRGRKWGDDAPKEEVDTG, the protein stability index was 2.24. For YSSGEFSTGRKWGDDAPKEEVDTG, the protein stability index was 2.48. In the case of YSSGEFSVGRKWGDDAPKEEVDTG, the protein stability index is reported as 1.57. With YSSGEFSYGRKWGDDAPKEEVDTG the protein stability index was 2.59. YSSGEFSSARKWGDDAPKEEVDTG gave a protein stability index of 1.91. YSSGEFSSCRKWGDDAPKEEVDTG gave a protein stability index of 1.75. In the case of YSSGEFSSDRKWGDDAPKEEVDTG, the protein stability index is reported as 3.6. Work on YSSGEFSSERKWGDDAPKEEVDTG yielded a protein stability index of 2.76. Work on YSSGEFSSFRKWGDDAPKEEVDTG yielded a protein stability index of 2.48. YSSGEFSSHRKWGDDAPKEEVDTG gave a protein stability index of 2.43. Variant YSSGEFSSIRKWGDDAPKEEVDTG has a protein stability index of 1.84. Work on YSSGEFSSKRKWGDDAPKEEVDTG yielded a protein stability index of 1.28. In the case of YSSGEFSSLRKWGDDAPKEEVDTG, the protein stability index is reported as 2.49. YSSGEFSSMRKWGDDAPKEEVDTG gave a protein stability index of 1.83. YSSGEFSSNRKWGDDAPKEEVDTG gave a protein stability index of 2.59. In the case of YSSGEFSSPRKWGDDAPKEEVDTG, the protein stability index is reported as 2.27. Variant YSSGEFSSQRKWGDDAPKEEVDTG has a protein stability index of 2.35. In the case of YSSGEFSSRRKWGDDAPKEEVDTG, the protein stability index is reported as 2.32. Work on YSSGEFSSSRKWGDDAPKEEVDTG yielded a protein stability index of 2.63. For YSSGEFSSTRKWGDDAPKEEVDTG, the protein stability index was 2.3. With YSSGEFSSVRKWGDDAPKEEVDTG the protein stability index was 3.12. Work on YSSGEFSSWRKWGDDAPKEEVDTG yielded a protein stability index of 1.43. YSSGEFSSYRKWGDDAPKEEVDTG gave a protein stability index of 2.44. Variant YSSGEFSSGAKWGDDAPKEEVDTG has a protein stability index of 2.35. With YSSGEFSSGCKWGDDAPKEEVDTG the protein stability index was 2.47. Work on YSSGEFSSGDKWGDDAPKEEVDTG yielded a protein stability index of 3.93. In the case of YSSGEFSSGEKWGDDAPKEEVDTG, the protein stability index is reported as 3.65. With YSSGEFSSGFKWGDDAPKEEVDTG the protein stability index was 1.74. In the case of YSSGEFSSGGKWGDDAPKEEVDTG, the protein stability index is reported as 2.93. Variant YSSGEFSSGHKWGDDAPKEEVDTG has a protein stability index of 2.85. YSSGEFSSGIKWGDDAPKEEVDTG gave a protein stability index of 2.13.

From the supplement of paper PMC10567573
